Test results taken from paper PMC9300185 (Chembiochem, 2021).

Molecular target: the molecule itself
Assay: crystal structure

B1: LecA, galactose-binding lectin of Pseudomonas aeruginosa (natural protein)
chain: AWKGEVLANNEAGQVTSIIYNPGDVITIVAAGWASYGPTQKWGPQGDREHPDQGLICHDAFCGALVMKIGNSGTIPVNTGLFRWVAPNNVQGAITLIYNDVPGTYGNNSGSFSVNIGKDQS
- stoichiometry N: 4
